Results reported in article PMC2139831 (The Journal of Cell Biology, 1997).
Substitutions are numbered along the chain they refer to. Blank lines part the entries; values can stand above or below the molecule they belong to.

Columns and labels:
Assay in all cases: two-hybrid
[1] = target: Chs4p^C693S (S. cerevisiae) (UniProt P34226)
[2] = target: Cdc10p (S. cerevisiae) (UniProt P25342)
[3] = target: Chs4p (S. cerevisiae) (UniProt P34226)
[4] = target: T1, Chs4p (S. cerevisiae, UniProt P34226 1-696)
T1 sequence (looked up): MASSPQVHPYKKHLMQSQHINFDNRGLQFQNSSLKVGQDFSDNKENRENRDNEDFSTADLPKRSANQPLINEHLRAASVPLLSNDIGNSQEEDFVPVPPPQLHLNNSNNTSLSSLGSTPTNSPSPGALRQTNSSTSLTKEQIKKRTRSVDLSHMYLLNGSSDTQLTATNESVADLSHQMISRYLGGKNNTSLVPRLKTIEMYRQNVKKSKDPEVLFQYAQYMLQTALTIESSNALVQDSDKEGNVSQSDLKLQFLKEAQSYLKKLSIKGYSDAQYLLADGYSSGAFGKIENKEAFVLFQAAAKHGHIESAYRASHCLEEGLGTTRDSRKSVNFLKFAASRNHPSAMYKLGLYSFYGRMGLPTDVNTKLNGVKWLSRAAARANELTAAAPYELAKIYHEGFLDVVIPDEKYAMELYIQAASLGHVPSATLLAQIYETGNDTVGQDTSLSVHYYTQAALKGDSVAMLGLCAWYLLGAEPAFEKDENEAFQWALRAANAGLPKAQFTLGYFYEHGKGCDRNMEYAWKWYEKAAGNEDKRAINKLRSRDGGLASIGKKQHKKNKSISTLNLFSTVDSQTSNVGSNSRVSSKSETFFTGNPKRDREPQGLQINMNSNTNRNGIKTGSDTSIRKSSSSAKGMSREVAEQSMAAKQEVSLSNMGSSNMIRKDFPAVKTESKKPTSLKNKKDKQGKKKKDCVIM

[5] = target: T2, Chs4p^C693S (S. cerevisiae, UniProt P34226 1-696, C693S)
T2 sequence (looked up): T1 sequence (looked up) with C693S

[6] = target: the molecule itself

Cdc10p (S. cerevisiae), sequence (P25342 whole entry): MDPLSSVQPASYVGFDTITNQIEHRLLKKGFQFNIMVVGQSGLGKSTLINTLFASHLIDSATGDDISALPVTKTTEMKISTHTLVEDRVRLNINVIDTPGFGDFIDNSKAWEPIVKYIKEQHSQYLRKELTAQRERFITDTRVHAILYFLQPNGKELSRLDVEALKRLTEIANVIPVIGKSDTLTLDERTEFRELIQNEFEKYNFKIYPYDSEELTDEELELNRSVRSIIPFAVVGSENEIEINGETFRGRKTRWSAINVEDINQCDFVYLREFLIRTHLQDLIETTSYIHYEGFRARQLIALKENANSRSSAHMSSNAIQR

units of β-galactosidase activity (units of β-galactosidase activity) [1]: 2220
units of β-galactosidase activity (units of β-galactosidase activity) [2]: 1010
units of β-galactosidase activity (units of β-galactosidase activity) [3]: 238
Molecule: Bni4pE (from UniProt P53858 65-730) (domain or fragment)

units of β-galactosidase activity [4]: 617 units of β-galactosidase activity
units of β-galactosidase activity [5]: 568 units of β-galactosidase activity
B1: Chs3p^Δ700 (domain or fragment, S. cerevisiae, UniProt P29465 1-700, looked up)
chain: MTGLNGDDPDDYYLNLNQDEESLLRSRHSVGSGAPHRQGSLVRPERSRLNNPDNPHFYYAQKTQEQMNHLDVLPSSTGVNPNATRRSGSLRSKGSVRSKFSGRETDSYLLQDMNTTDKKASVKISDEGVAEDEFDKDGDVDNFEESSTQPINKSIKPLRKETNDTLSFWQMYCYFITFWAPAPILAFCGMPKKERQMAWREKVALISVILYIGAIVAFLTFGFTKTVCSSSKLRLKNNEVSTEFVVINGKAYELDTSSRSGIQDVEVDSDTLYGPWSDAGKDASFLFQNVNGNCHNLITPKSNSSIPHDDDNNLAWYFPCKLKNQDGSSKPNFTVENYAGWNCHTSKEDRDAFYGLKSKADVYFTWDGIKNSSRNLIVYNGDVLDLDLLDWLEKDDVDYPVVFDDLKTSNLQGYDLSLVLSNGHERKIARCLSEIIKVGEVDSKTVGCIASDVVLYVSLVFILSVVIIKFIIACYFRWTVARKQGAYIVDNKTMDKHTNDIEDWSNNIQTKAPLKEVDPHLRPKKYSKKSLGHKRASTFDLLKKHSSKMFQFNESVIDLDTSMSSSLQSSGSYRGMTTMTTQNAWKLSNENKAVHSRNPSTLLPTSSMFWNKATSSPVPGSSLIQSLDSTIIHPDIVQQPPLDFMPYGFPLIHTICFVTCYSEDEEGLRTTLDSLSTTDYPNSHKLLMVVCDGLIKGSGN
units of β-galactosidase activity [6]: 123 units of β-galactosidase activity
